Results as given in paper PMC9482650, “Quantitative fragmentomics allow affinity mapping of interactomes” (Nature Communications, 2022).

target: AHNAK1, Q09666; test: holdup assay; design: key: below the threshold = too weak to quantify, mostly under pKd 3.1 to 4; conditions: plain residues with an end cap or a label only (N-terminal biotin on a linker: ttds)
Sequence (Q09666 4-100): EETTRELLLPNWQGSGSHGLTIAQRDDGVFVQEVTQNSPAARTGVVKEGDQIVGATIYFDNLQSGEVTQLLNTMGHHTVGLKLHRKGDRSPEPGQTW

| Binder | pKd |
| --- | --- |
| DPRNTQTSQI [ABRAXAS2, Q15018] | 3.53 |

target: T1, APBA1_1, Q02410; test: holdup assay; design: key: below the threshold = too weak to quantify, mostly under pKd 3.1 to 4; conditions: plain residues with an end cap or a label only (N-terminal biotin on a linker: ttds)
T1 sequence (Q02410 651-752, limits assumed, looked up): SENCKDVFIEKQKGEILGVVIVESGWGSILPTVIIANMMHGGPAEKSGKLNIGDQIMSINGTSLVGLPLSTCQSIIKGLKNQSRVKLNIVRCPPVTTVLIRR

| Binder | pKd |
| --- | --- |
| DPRNTQTSQI [ABRAXAS2, Q15018] | below the threshold |

target: T2, APBA2_1, Q99767; test: holdup assay; design: key: below the threshold = too weak to quantify, mostly under pKd 3.1 to 4; conditions: plain residues with an end cap or a label only (N-terminal biotin on a linker: ttds)
T2 sequence (Q99767 563-664, limits assumed, looked up): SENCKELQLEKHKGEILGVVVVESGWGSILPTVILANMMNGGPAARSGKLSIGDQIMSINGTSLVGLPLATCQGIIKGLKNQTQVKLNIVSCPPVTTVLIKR

| Binder | pKd |
| --- | --- |
| DPRNTQTSQI [ABRAXAS2, Q15018] | below the threshold |

target: T3, ARHGAP21, Q5T5U3; test: holdup assay; design: key: below the threshold = too weak to quantify, mostly under pKd 3.1 to 4; conditions: plain residues with an end cap or a label only (N-terminal biotin on a linker: ttds)
T3 sequence (Q5T5U3 45-169, limits assumed, looked up): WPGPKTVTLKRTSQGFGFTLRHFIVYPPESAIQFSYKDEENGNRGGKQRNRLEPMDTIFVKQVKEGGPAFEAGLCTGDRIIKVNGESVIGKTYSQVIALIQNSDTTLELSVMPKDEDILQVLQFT

| Binder | pKd |
| --- | --- |
| DPRNTQTSQI [ABRAXAS2, Q15018] | below the threshold |

target: DLG1_3, Q12959; test: holdup assay; design: key: below the threshold = too weak to quantify, mostly under pKd 3.1 to 4; conditions: plain residues with an end cap or a label only (N-terminal biotin on a linker: ttds)
Sequence (Q12959 457-571): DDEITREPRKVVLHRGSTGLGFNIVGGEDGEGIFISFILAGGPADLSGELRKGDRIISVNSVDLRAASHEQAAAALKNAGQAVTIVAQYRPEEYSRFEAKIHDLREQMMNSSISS

| Binder | pKd |
| --- | --- |
| DPRNTQTSQI [ABRAXAS2, Q15018] | 3.52 |

target: DLG5_1, Q8TDM6; test: holdup assay; design: key: below the threshold = too weak to quantify, mostly under pKd 3.1 to 4; conditions: plain residues with an end cap or a label only (N-terminal biotin on a linker: ttds)
Sequence (Q8TDM6 617-713): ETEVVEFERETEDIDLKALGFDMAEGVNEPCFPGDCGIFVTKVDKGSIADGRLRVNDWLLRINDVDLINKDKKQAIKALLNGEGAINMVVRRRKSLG

| Binder | pKd |
| --- | --- |
| DPRNTQTSQI [ABRAXAS2, Q15018] | below the threshold |

target: FRMPD2_2, Q68DX3; test: holdup assay; design: key: below the threshold = too weak to quantify, mostly under pKd 3.1 to 4; conditions: plain residues with an end cap or a label only (N-terminal biotin on a linker: ttds)
Sequence (Q68DX3 944-1038): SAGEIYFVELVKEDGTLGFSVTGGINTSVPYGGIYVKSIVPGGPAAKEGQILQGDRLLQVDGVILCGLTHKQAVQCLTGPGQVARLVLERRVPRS

| Binder | pKd |
| --- | --- |
| DPRNTQTSQI [ABRAXAS2, Q15018] | below the threshold |

target: GOPC, Q9HD26; test: holdup assay; design: key: below the threshold = too weak to quantify, mostly under pKd 3.1 to 4; conditions: plain residues with an end cap or a label only (N-terminal biotin on a linker: ttds)

| Binder | pKd |
| --- | --- |
| DPRNTQTSQI [ABRAXAS2, Q15018] | 4.13 |

target: GRASP, Q7Z6J2; test: holdup assay; design: key: below the threshold = too weak to quantify, mostly under pKd 3.1 to 4; conditions: plain residues with an end cap or a label only (N-terminal biotin on a linker: ttds)
Sequence (Q7Z6J2 96-193): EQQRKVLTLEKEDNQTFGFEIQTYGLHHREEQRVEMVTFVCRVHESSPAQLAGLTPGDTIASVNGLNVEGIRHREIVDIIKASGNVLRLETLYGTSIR

| Binder | pKd |
| --- | --- |
| DPRNTQTSQI [ABRAXAS2, Q15018] | 3.95 |

target: GRID2IP_1, A4D2P6; test: holdup assay; design: key: below the threshold = too weak to quantify, mostly under pKd 3.1 to 4; conditions: plain residues with an end cap or a label only (N-terminal biotin on a linker: ttds)
Sequence (A4D2P6 1-87): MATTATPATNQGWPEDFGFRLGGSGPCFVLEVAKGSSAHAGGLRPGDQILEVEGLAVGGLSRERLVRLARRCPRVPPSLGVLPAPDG

| Binder | pKd |
| --- | --- |
| DPRNTQTSQI [ABRAXAS2, Q15018] | below the threshold |

target: IL16_1, Q14005; test: holdup assay; design: key: below the threshold = too weak to quantify, mostly under pKd 3.1 to 4; conditions: plain residues with an end cap or a label only (N-terminal biotin on a linker: ttds)
Sequence (Q14005 210-306): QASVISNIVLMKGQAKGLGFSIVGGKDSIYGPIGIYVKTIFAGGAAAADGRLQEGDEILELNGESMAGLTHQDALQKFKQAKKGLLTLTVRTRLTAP

| Binder | pKd |
| --- | --- |
| DPRNTQTSQI [ABRAXAS2, Q15018] | 3.59 |

target: Inadl_9, Q8NI35; test: holdup assay; design: key: below the threshold = too weak to quantify, mostly under pKd 3.1 to 4; conditions: plain residues with an end cap or a label only (N-terminal biotin on a linker: ttds)
Sequence (Q8NI35 1530-1615): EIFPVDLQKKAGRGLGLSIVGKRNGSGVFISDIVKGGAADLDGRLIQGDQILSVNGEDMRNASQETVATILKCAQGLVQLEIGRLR

| Binder | pKd |
| --- | --- |
| DPRNTQTSQI [ABRAXAS2, Q15018] | below the threshold |

target: LAP2, Q96RT1; test: holdup assay; design: key: below the threshold = too weak to quantify, mostly under pKd 3.1 to 4; conditions: plain residues with an end cap or a label only (N-terminal biotin on a linker: ttds)
Sequence (Q96RT1 other isoform, or with tags, fused parts or gaps): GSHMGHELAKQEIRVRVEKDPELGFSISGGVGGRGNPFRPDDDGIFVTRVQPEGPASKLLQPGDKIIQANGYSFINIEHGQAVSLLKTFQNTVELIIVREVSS

| Binder | pKd |
| --- | --- |
| DPRNTQTSQI [ABRAXAS2, Q15018] | 3.53 |

target: LNX1_1, Q8TBB1; test: holdup assay; design: key: below the threshold = too weak to quantify, mostly under pKd 3.1 to 4; conditions: plain residues with an end cap or a label only (N-terminal biotin on a linker: ttds)
Sequence (Q8TBB1 261-371): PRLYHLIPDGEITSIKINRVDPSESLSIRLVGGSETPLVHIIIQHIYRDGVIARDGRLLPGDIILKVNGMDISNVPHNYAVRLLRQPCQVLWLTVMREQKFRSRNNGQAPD

| Binder | pKd |
| --- | --- |
| DPRNTQTSQI [ABRAXAS2, Q15018] | below the threshold |

target: MAGI2_4, Q86UL8; test: holdup assay; design: key: below the threshold = too weak to quantify, mostly under pKd 3.1 to 4; conditions: plain residues with an end cap or a label only (N-terminal biotin on a linker: ttds)
Sequence (Q86UL8 772-865): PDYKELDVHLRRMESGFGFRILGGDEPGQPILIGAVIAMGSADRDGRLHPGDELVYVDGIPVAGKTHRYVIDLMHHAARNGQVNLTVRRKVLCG

| Binder | pKd |
| --- | --- |
| DPRNTQTSQI [ABRAXAS2, Q15018] | below the threshold |

target: MAGI3_2, Q5TCQ9; test: holdup assay; design: key: below the threshold = too weak to quantify, mostly under pKd 3.1 to 4; conditions: plain residues with an end cap or a label only (N-terminal biotin on a linker: ttds)
Sequence (Q5TCQ9 398-503): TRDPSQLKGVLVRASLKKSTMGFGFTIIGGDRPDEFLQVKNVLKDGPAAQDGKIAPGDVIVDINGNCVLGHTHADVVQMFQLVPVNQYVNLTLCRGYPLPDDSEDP

| Binder | pKd |
| --- | --- |
| DPRNTQTSQI [ABRAXAS2, Q15018] | below the threshold |

target: T4, MPDZ_10, O75970; test: holdup assay; design: key: below the threshold = too weak to quantify, mostly under pKd 3.1 to 4; conditions: plain residues with an end cap or a label only (N-terminal biotin on a linker: ttds)
T4 sequence (O75970 1624-1722, limits assumed, looked up): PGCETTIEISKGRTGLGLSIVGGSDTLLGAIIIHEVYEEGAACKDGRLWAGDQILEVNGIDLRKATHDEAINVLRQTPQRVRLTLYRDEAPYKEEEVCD

| Binder | pKd |
| --- | --- |
| DPRNTQTSQI [ABRAXAS2, Q15018] | below the threshold |

target: T5, MPDZ_12, O75970; test: holdup assay; design: key: below the threshold = too weak to quantify, mostly under pKd 3.1 to 4; conditions: plain residues with an end cap or a label only (N-terminal biotin on a linker: ttds)
T5 sequence (O75970 1857-1958, limits assumed, looked up): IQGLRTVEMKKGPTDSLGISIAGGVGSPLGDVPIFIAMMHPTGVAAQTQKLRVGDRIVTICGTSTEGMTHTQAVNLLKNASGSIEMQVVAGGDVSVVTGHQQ

| Binder | pKd |
| --- | --- |
| DPRNTQTSQI [ABRAXAS2, Q15018] | below the threshold |

target: T6, MPDZ_5, O75970; test: holdup assay; design: key: below the threshold = too weak to quantify, mostly under pKd 3.1 to 4; conditions: plain residues with an end cap or a label only (N-terminal biotin on a linker: ttds)
T6 sequence (O75970 695-796, limits assumed, looked up): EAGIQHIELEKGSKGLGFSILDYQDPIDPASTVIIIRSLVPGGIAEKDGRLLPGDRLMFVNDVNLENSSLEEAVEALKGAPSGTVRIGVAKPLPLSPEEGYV

| Binder | pKd |
| --- | --- |
| DPRNTQTSQI [ABRAXAS2, Q15018] | below the threshold |

target: NHERF4_1, Q86UT5-2; test: holdup assay; design: key: below the threshold = too weak to quantify, mostly under pKd 3.1 to 4; conditions: plain residues with an end cap or a label only (N-terminal biotin on a linker: ttds)
Sequence (Q86UT5 other isoform, or with tags, fused parts or gaps): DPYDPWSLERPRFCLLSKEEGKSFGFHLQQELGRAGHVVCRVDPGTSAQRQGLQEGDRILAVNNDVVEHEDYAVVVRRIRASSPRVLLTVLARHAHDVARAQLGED

| Binder | pKd |
| --- | --- |
| DPRNTQTSQI [ABRAXAS2, Q15018] | below the threshold |

target: NHERF4_2, Q86UT5; test: holdup assay; design: key: below the threshold = too weak to quantify, mostly under pKd 3.1 to 4; conditions: plain residues with an end cap or a label only (N-terminal biotin on a linker: ttds)
Sequence (Q86UT5 220-308): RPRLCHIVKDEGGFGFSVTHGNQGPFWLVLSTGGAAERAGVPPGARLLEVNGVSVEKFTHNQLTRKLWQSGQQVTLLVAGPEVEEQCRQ

| Binder | pKd |
| --- | --- |
| DPRNTQTSQI [ABRAXAS2, Q15018] | below the threshold |

target: T7, PARD3B_1, Q8TEW8; test: holdup assay; design: key: below the threshold = too weak to quantify, mostly under pKd 3.1 to 4; conditions: plain residues with an end cap or a label only (N-terminal biotin on a linker: ttds)
T7 sequence (Q8TEW8 196-299, limits assumed, looked up): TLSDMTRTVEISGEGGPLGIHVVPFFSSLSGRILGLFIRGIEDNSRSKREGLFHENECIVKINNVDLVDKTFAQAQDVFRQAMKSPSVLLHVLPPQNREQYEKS

| Binder | pKd |
| --- | --- |
| DPRNTQTSQI [ABRAXAS2, Q15018] | 3.69 |

target: T8, RADIL, Q96JH8; test: holdup assay; design: key: below the threshold = too weak to quantify, mostly under pKd 3.1 to 4; conditions: plain residues with an end cap or a label only (N-terminal biotin on a linker: ttds)
T8 sequence (Q96JH8 971-1071, limits assumed, looked up): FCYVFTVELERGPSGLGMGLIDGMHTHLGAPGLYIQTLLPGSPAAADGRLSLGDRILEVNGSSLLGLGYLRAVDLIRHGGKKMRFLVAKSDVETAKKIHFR

| Binder | pKd |
| --- | --- |
| DPRNTQTSQI [ABRAXAS2, Q15018] | below the threshold |

target: T9, RAPGEF6, Q8TEU7; test: holdup assay; design: key: below the threshold = too weak to quantify, mostly under pKd 3.1 to 4; conditions: plain residues with an end cap or a label only (N-terminal biotin on a linker: ttds)
T9 sequence (Q8TEU7 525-625, limits assumed, looked up): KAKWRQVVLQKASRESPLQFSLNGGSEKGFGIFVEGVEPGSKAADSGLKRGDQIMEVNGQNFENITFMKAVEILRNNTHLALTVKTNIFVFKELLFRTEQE

| Binder | pKd |
| --- | --- |
| DPRNTQTSQI [ABRAXAS2, Q15018] | below the threshold |

target: SCRIB_1, Q14160; test: holdup assay; design: key: below the threshold = too weak to quantify, mostly under pKd 3.1 to 4; conditions: plain residues with an end cap or a label only (N-terminal biotin on a linker: ttds)
Sequence (Q14160 718-814): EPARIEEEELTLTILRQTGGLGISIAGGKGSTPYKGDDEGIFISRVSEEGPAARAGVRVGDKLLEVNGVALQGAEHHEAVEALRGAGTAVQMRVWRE

| Binder | pKd |
| --- | --- |
| DPRNTQTSQI [ABRAXAS2, Q15018] | 4.02 |

target: T10, SHANK1, Q9Y566; test: holdup assay; design: key: below the threshold = too weak to quantify, mostly under pKd 3.1 to 4; conditions: plain residues with an end cap or a label only (N-terminal biotin on a linker: ttds)
T10 sequence (Q9Y566 658-767, limits assumed, looked up): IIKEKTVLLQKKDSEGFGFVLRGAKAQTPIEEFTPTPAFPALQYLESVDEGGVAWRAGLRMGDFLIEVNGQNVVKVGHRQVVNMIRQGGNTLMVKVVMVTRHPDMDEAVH

| Binder | pKd |
| --- | --- |
| DPRNTQTSQI [ABRAXAS2, Q15018] | below the threshold |
